One test concerns CfEcR-DEF. The test is described as follows: GAL4/mutant CfEcR-DEF + VP16/LmUSP-EF GAL4-driven luciferase reporter transactivation in NIH3T3 cells. In kind it is cell-based, Choristoneura fumiferana.
A further test concerns CfEcR-A/BCDEF. The test is described as follows: GAL4/full length CfEcR-A/BCDEF or A110P mutant, EcRE-driven luciferase reporter in NIH3T3 cells (FIG. 2). The format is cell-based, Choristoneura fumiferana. Particulars: 40 hours. The source says:
To eliminate the possibility that the loss of steroid activity may be due to the truncated CfEcR-DEF receptor or an artifact of the GAL4 fusion protein, Applicants introduced the A110P mutation into the full length (FL) CfEcR (CfEcR-A/BCDEF), fused it to the GAL4 DNA binding domain as described in Example 1.4, and comparatively assayed it in NIH3T3 cells in 24-well plates as described in Example 2 above with full length wild type CfEcR (Example 1.3) in combination with VP16/LmUSP-EF and pFREcRE Luc that comprised the luciferase reporter gene operatively linked to six copies of the ecdysone response element (6×EcRE) and a synthetic TATAA. The transfected cells were grown in the presence of 0.25 or 10 μM PonA or GS™-E and the reporter activity was measured at 40 hours after adding ligand. The cells were harvested and the extracts were assayed for luciferase activity. The numbers on top of the bars indicate fold increase over DMSO levels.
(In a reporter assay the amount or activity of a reporter protein is the signal.)

A further test deals with CfEcR. Briefly: In vitro 3H-PonA ligand binding of CfEcR wild-type and A110 mutants (FIG. 5). Particulars: in vitro translated receptor with GST-CfUSP-A/BCDEF. Further details: species or system Choristoneura fumiferana.
Another test has as its system CfEcR-CDEF. Particulars: L57 cells, 40 hours, FIG. 3.

Description for CfEcR-CDEF: To determine whether the A110P mutant can respond to 20E, Applicants tested this A110P mutant-based gene expression system in an EcRE-driven reporter assay in insect L57 cells (a Drosophila melanogaster cell line that lacks EcR isoform B, the Drosophila melanogaster EcR isoform homolog of CfEcR isoform B from which the A110P mutant is derived, however L57 cells still contain EcR isoform A). The mutation was introduced into the VP16/CfEcR-CDEF fusion protein and operably linked to an baculovirus IE1 promoter and L57 cells were transfected with IE1VP16CfEcRCDEF (Example 1.5) or its A110P mutant version DNA (Example 1.6) along with a pMK43.2 β-galactosidase reporter gene under the control of 6× ecdysone response elements (“6×EcRE”; the pMK43.2 construct was obtained from Michael Koelle at Stanford University) in 24-well plates. Reporter activity for A110P mutant-based gene expression system transactivation was measured after 40 hours of treatment of the transfected cells with 0, 1, 10, 100, or 1000 nM 20E or GS™-E. The cells were harvested and the extracts were assayed for β-galactosidase (β-gal) and luciferase activity. β-Galactosidase was measured using Galacto-Star™ assay kit from TROPIX following the manufacturer's instructions.

B1: A110P: CfEcR LBD substitution mutant, Alanine (A) to Proline (P); also made in CfEcR-A/BCDEF and CfEcR-CDEF (protein, listed as Choristoneura fumiferana)
chain: LTANQQFLIARLIWYQDGYEQPSDEDLKRITQTWQQADDENEESDTPFRQITEMTILTVQLIVEFAKGLPGFAKISQPDQITLLKACSSEVMMLRVARRYDAASDSVLFPNNQAYTRDNYRKAGMAYVIEDLLHFCRCMYSMALDNIHYALLTAVVIFSDRPGLEQPQLVEEIQRYYLNTLRIYILNQLSGSARSSVIYGKILSILSELRTLGMQNSNMCISLKLKNRKLPPFLEEIWDV
Consider B1, for which, in the test on CfEcR-DEF (2.5 μM GS™-E non-steroidal ligand, NIH3T3 cells, relative to Gal4/wild-type CfEcR-DEF switch activity), the “Fold increase over WT, 2.5 μM GS™-E” value was 0.8 fold. In addition, in the test with CfEcR-DEF (2.5 μM PonA steroidal ligand, NIH3T3 cells, relative to Gal4/wild-type CfEcR-DEF switch activity), the “Fold increase over WT, 2.5 μM PonA” value is reported as 0.005 fold. The “non-steroid activity (summary of Table 10)” value in the test on CfEcR-DEF (GS™-E, CfEcR-DEF point mutants) is on record as “not significantly affected”. The “steroid binding activity (summary of Table 10)” value in the test on CfEcR-DEF (PonA, CfEcR-DEF point mutants) is on record as “essentially eliminated”. In addition, in the test on CfEcR-A/BCDEF (0.25 or 10 μM GS™-E), the “non-steroid activity of full length receptor versus full length WT CfEcR” value was “no significant difference”. For the same molecule, in the test on CfEcR-A/BCDEF (0.25 or 10 μM PonA), the “PonA activity of full length receptor” value is “completely lost”. Also, the “PonA binding, of wild-type receptor binding” value in the test with CfEcR was “undetectable”. The “reporter gene activity in the presence of 20E” value in the test on CfEcR-CDEF (1-1000 nM 20E) was “slightly increased reporter gene activity”. Moreover, the “reporter gene expression in the presence of GS™-E” value in the test with CfEcR-CDEF (1-1000 nM GS™-E) is reported as “transactivated reporter gene expression”.

(Values after patent publication US8715959B2, “Substitution mutant receptors and their use in a nuclear receptor-based inducible gene expression system” (priority 2001, dated 2014).)
